Two molecules from patent US20260234255A1 (Genmab, published 2026) can be followed below.

Where a chain is given by its changes, count along the chain named.

Test [1] deals with T1, human CD30 (human, UniProt P28908 19-595).
T1 construct: The same molecule is used for CD30 on HL/ALCL/NHL cell lines; also called huCD30; TNFRSF8
T1 sequence: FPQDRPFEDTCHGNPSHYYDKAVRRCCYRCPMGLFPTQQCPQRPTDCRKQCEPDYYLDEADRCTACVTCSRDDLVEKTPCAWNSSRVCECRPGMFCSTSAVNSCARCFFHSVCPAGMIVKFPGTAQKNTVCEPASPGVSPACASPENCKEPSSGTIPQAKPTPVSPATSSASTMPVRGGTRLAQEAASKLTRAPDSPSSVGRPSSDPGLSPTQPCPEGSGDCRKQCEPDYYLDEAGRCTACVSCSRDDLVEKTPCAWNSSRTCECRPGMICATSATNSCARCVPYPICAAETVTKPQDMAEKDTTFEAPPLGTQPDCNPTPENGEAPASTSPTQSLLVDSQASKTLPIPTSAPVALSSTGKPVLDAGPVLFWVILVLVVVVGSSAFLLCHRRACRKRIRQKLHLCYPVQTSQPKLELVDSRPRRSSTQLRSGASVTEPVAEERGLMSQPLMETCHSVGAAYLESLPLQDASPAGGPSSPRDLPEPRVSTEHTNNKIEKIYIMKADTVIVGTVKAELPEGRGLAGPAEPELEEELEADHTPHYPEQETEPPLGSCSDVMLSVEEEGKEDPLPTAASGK
As to the kind of experiment: flow cytometry, L-428 cells, experiment N = 2.

Test [2] concerns the target T1, human CD30. Nature of the test: flow cytometry, L-1236 cells (HL), range of 3 tests. On the procedure: (§1) Cells (3×10⁴ cells/well) were incubated in polystyrene 96-well round-bottom plates (Greiner bio-one, cat. no. 650180) with serial dilutions of antibodies (range 0.0046 to 10 μg/mL in 3-fold dilution steps) in 50 μL staining buffer at 4° C. for 30 min. After washing twice in staining buffer, cells were incubated with 50 μL secondary antibody at 4° C. for 30 min. […] Next, cells were washed twice in staining buffer, resuspended in 100 μL staining buffer supplemented with TO-PRO-3 iodide (Thermo Fisher Scientific; cat. no. T3605; 1:8000 dilution) and analyzed on a FACSCelesta flow cytometer (BD Biosciences, USA). Live cells were gated based on FSC/SSC and absence of TOPRO-3 staining. Binding curves were analyzed by non-linear regression of log-transformed data (sigmoidal dose-response with variable slope, four parameters) using GraphPad Prism V7.02 software (GraphPad Software, San Diego, CA, USA).
(In general: A flow cytometer gives signals particle by particle.)

Test [3] addresses T1, human CD30. As to the kind of experiment: flow cytometry, SR-786 cells (ALCL), average of 3 tests. On the procedure: as §1
In test [4] the target is T2, rhesus monkey (Macaca mulatta) CD30 (rhesus monkey, UniProt P28908 19-595 (human entry)).
T2 construct: also called mmCD30
T2 chain: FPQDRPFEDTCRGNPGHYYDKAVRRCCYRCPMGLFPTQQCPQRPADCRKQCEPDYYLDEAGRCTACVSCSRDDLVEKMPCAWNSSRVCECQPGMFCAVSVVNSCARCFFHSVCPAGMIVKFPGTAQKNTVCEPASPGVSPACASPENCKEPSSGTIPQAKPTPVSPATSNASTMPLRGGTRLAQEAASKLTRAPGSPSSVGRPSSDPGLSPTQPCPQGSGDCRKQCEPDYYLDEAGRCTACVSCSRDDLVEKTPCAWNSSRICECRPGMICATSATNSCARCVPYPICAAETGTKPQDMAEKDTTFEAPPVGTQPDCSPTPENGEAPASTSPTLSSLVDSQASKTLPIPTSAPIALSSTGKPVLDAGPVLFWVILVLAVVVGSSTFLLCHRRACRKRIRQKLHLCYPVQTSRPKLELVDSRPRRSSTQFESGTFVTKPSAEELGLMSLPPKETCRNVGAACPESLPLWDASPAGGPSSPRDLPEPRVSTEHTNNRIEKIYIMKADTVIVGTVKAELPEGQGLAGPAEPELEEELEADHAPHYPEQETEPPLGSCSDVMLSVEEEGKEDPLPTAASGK
As to the kind of experiment: flow cytometry, HEK293 cells; panel title 'HEK293 rhesus CD30'. On the procedure: (§2) Cells (3×10⁴ cells/well) were incubated in polystyrene 96-well round-bottom plates (Thermo Scientific, cat. no. 163320) with serial dilutions of antibodies (ranging from 0.0002 to 50 μg/mL in 4-fold dilution steps) in 50 μL staining buffer at 4° C. for 30 min. Experiments were performed in technical duplicate. After washing twice in staining buffer, cells were incubated in 50 μL secondary antibody at 4° C. for 30 min. As a secondary antibody, R-PE-conjugated goat-anti-human IgG (Jackson ImmunoResearch, UK; cat. no. 109⁻¹¹⁶-098) diluted 1:200 in staining buffer was used. Cells were washed twice in staining buffer, resuspended in 30 μL staining buffer containing 0.4% EDTA and the ToPro-3 viability marker (Invitrogen, cat. no. T3605) diluted 1:10,000. Cells were analyzed on an iQue Screener (Intellicyt Corporation, USA). Binding curves were analyzed using non-linear regression (sigmoidal dose-response with variable slope) using GraphPad Prism V9.0.0 software (GraphPad Software, San Diego, CA, USA).

The target in test [5] is T3, cynomolgus monkey (Macaca fascicularis) CD30 (cynomolgus monkey, UniProt P28908 19-595 (human entry)).
T3 construct: also called mfCD30
T3 chain: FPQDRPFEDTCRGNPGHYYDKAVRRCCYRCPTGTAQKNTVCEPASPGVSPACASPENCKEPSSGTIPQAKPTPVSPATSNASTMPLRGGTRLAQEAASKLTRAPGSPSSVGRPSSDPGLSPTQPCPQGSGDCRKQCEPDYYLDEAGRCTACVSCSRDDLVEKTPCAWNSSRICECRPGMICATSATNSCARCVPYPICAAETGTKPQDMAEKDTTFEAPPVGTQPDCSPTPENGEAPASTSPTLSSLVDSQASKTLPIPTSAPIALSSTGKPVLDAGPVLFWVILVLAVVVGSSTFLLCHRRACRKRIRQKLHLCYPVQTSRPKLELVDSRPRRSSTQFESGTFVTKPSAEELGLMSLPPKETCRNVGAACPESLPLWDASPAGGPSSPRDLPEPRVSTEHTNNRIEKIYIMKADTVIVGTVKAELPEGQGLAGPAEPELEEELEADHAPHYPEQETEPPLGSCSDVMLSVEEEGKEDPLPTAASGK
Nature of the test: flow cytometry, HEK293 cells transfected with mfCD30. The method, then: as §2

Test [6] addresses T1, human CD30. As to the kind of experiment: flow cytometry, DL-40 cells (ALCL), average of 3 tests. The method, then: as §1
Test [7] has as its target T1, human CD30. Nature of the test: flow cytometry, NCEB-1 cells (MCL), range of 3 tests. The method, then:
as §1

In general, EC50 refers to the concentration giving half of the maximal effect. As a reminder, the EC50 (read off the curve) is the concentration at which the effect is half-maximal.

B1: bsG1-huCD3-FEALxCD30-MDX060-FEAR (bispecific antibody, human IgG1, kappa, lambda)
heavy 1: not shown
light 1: not shown
heavy 2: QVQLQQWGAGLLKPSETLSLTCAVYGGSFSAYYWSWIRQPPGKGLEWIGDINHGGGTNYNPSLKSRVTISVDTSKNQFSLKLNSVTAADTAVYYCASLTAYWGQGSLVTVSSASTKGPSVFPLAPSSKSTSGGTAALGCLVKDYFPEPVTVSWNSGALTSGVHTFPAVLQSSGLYSLSSVVTVPSSSLGTQTYICNVNHKPSNTKVDKRVEPKSCDKTHTCPPCPAPEFEGGPSVFLFPPKPKDTLMISRTPEVTCVVVAVSHEDPEVKFNWYVDGVEVHNAKTKPREEQYNSTYRVVSVLTVLHQDWLNGKEYKCKVSNKALPAPIEKTISKAKGQPREPQVYTLPPSREEMTKNQVSLTCLVKGFYPSDIAVEWESNGQPENNYKTTPPVLDSDGSFFLYSRLTVDKSRWQQGNVFSCSVMHEALHNHYTQKSLSLSPG
light 2: DIQMTQSPTSLSASVGDRVTITCRASQGISSWLTWYQQKPEKAPKSLIYAASSLQSGVPSRFSGSGSGTDFTLTISSLQPEDFATYYCQQYDSYPITFGQGTRLEIKRTVAAPSVFIFPPSDEQLKSGTASVVCLLNNFYPREAKVQWKVDNALQSGNSQESVTEQDSKDSTYSLSSTLTLSKADYEKHKVYACEVTHQGLSSPVTKSFNRGEC
notes: also called bsG1-huCD3xCD30-MDX060
With B1, the response with human CD30 [1] was half-maximal at 0.0705 µg/mL (EC50).

B2: bsG1-huCD3-FEALxCD30-MDX060-FERR (bispecific antibody, human IgG1, kappa, lambda)
heavy 1: not shown
light 1: not shown
heavy 2: B1 heavy 2 with G231R, A260D
light 2: B1 light 2
notes: Bispecific IgG1 made by controlled Fab-arm exchange; also called bsIgG1-huCD3-FEALxCD30-MDX060-FERR; bsG1-huCD3×CD30-MDX060
B2: the EC50 with human CD30 [2] was 0.163 to 0.225 µg/mL; in the test with human CD30 [3], 0.328 µg/mL; in the test with human CD30 [6] it was 0.236 µg/mL; with human CD30 [7], 0.118 to 0.2 µg/mL. For the same molecule, in test [4], the “EC50 (read off the curve)” value is approximately 0.07 µg/mL. Further, in test [5], the binding result is recorded as “binds”.
